Source: patent US20240024520A1, “AUTONOMOUS KNOB DOMAIN PEPTIDES” (UCB BIOPHARMA SRL, priority 2020, published 2024)

B1: hC3nb1-K57: hC3nb1 with K57 ultralong CDR-H3 inserted between H74 and H75, displayed on M13 phage (protein)
VHH: QVQLVETGGGLVQAGGSLRLSCAASGSIFSLNAMGWFRQAPGKEREFVATINRSGGRTYYADSVKGRFTISRDNGTTVHQRTIKSGCPPGYKSGVDCSPGSECKWGCYAVDGRRYGGYGADSGVGSTYTHEFYVDAKNMVYLQMHSLKPEDTAIYYCAAGTGWSPQTDNEYNYWGQGTQVTVSS
modifications: left off: large carriers
B2: hC3Nb1 C-Term (protein)
VHH: QVQLVETGGGLVQAGGSLRLSCAASGSIFSLNAMGWFRQAPGKEREFVATINRSGGRTYYADSVKGRFTISRDNGKNMVYLQMHSLKPEDTAIYYCAAGTGWSPQTDNEYNYWGQGTQVTVSSGGGSGCPPGYKSGVDCSPGSECKWGCYAVDGRRYGGYGADSGV
modifications: left off: a dimerising Fc or GST
B3: 563 (protein)
CDR: TTVHQQTKKQKSCPDGWGHSDDCNCACSANAYACCKRDWLLPGPSCECSTYCVSHTYQWYV
modifications: Anti-C5 ultralong CDR-H3
B4: 568 (protein)
CDR: TTVVQRTRKIVTCPDGYSYSEGCGKGDDCGGVHCCANGGVTCWYRHCCSTGTDTYSYEWYVD
modifications: Anti-C5 ultralong CDR-H3
B5: hC3nb1-K8: hC3nb1 with K8 ultralong CDR-H3 inserted between H74 and H75, displayed on M13 phage (protein)
VHH: QVQLVETGGGLVQAGGSLRLSCAASGSIFSLNAMGWFRQAPGKEREFVATINRSGGRTYYADSVKGRFTISRDNGTVQQKTHQVCPDGFNWGYGCAAGSSRFCTRHDWCCYDERADSHTYGFCTGNRVTNTYEFHADAKNMVYLQMHSLKPEDTAIYYCAAGTGWSPQTDNEYNYWGQGTQVTVSS
modifications: left off: large carriers
B6: hC3nb1-K149: hC3nb1 with K149 ultralong CDR-H3 inserted between H74 and H75, displayed on M13 phage (protein)
VHH: QVQLVETGGGLVQAGGSLRLSCAASGSIFSLNAMGWFRQAPGKEREFVATINRSGGRTYYADSVKGRFTISRDNGTSVLQSTKPQKSCPDGFSYRSWDDFCCPMVGRCLAPRNTYTTEFTIEAKNMVYLQMHSLKPEDTAIYYCAAGTGWSPQTDNEYNYWGQGTQVTVSS
modifications: left off: large carriers
B7: hC3Nb1 N-Term (protein)
VHH: TTVHQRTIKSGCPPGYKSGVDCSPGSECKWGCYAVDGRRYGGYGADSGVGSTYTHEFYVDAWGQGSSSSGSSSSGQVQLVETGGGLVQAGGSLRLSCAASGSIFSLNAMGWFRQAPGKEREFVATINRSGGRTYYADSVKGRFTISRDNGKNMVYLQMHSLKPEDTAIYYCAAGTGWSPQTDNEYNYWGQGTQVTVSS
modifications: left off: a dimerising Fc or GST
B8: hC3nb1: camelid VHH which binds C3 and C3b, PDB code 6EHG (protein)
VHH: QVQLVETGGGLVQAGGSLRLSCAASGSIFSLNAMGWFRQAPGKEREFVATINRSGGRTYYADSVKGRFTISRDNGKNMVYLQMHSLKPEDTAIYYCAAGTGWSPQTDNEYNYWGQGTQVTVSS
modifications: left off: a dimerising Fc or GST
B9: 564 (protein)
CDR: TTVHQHTRKSGSCPDGWSDCHGSCDGVGCTGSDCVRYNARGYGRHACSGYAYTYSYEFYVN
modifications: Anti-C5 ultralong CDR-H3
B10: hC3Nb1Loop2ΔP (protein)
VHH: QVQLVETGGGLVQAGGSLRLSCAASGSIFSLNAMGWFRQASGGGSGCPPGYKSGVDCSPGSECKWGCYAVDGRRYGGYGADSGVSGGGSKEREFVATINRSGGRTYYADSVKGRFTISRDNGKNMVYLQMHSLKPEDTAIYYCAAGTGWSPQTDNEYNYWGQGTQVTVSS
modifications: left off: a dimerising Fc or GST
B11: hC3Nb1 Loop 3 (protein)
VHH: QVQLVETGGGLVQAGGSLRLSCAASGSIFSLNAMGWFRQAPGKEREFVATINRSGGRTYYADSVKGSGGGSGCPPGYKSGVDCSPGSECKWGCYAVDGRRYGGYGADSGVSGGGSRFTISRDNGKNMVYLQMHSLKPEDTAIYYCAAGTGWSPQTDNEYNYWGQGTQVTVSS
modifications: left off: a dimerising Fc or GST
B12: 542 (protein)
CDR: TTVVQRTHKTTSCPDGYHFIEPCHSGLCWREGACNGDGICANGLGRCRTVSETSTYEFYVN
modifications: Anti-C5 ultralong CDR-H3
B13: hC3nb1-K92: hC3nb1 with K92 ultralong CDR-H3 inserted between H74 and H75, displayed on M13 phage (protein)
VHH: QVQLVETGGGLVQAGGSLRLSCAASGSIFSLNAMGWFRQAPGKEREFVATINRSGGRTYYADSVKGRFTISRDNGSIVHQKAHTSVTCPEGWSECGVAIYGYECGRWGCGHFLNSGPNISPYVSTHKYEWYVDAKNMVYLQMHSLKPEDTAIYYCAAGTGWSPQTDNEYNYWGQGTQVTVSS
modifications: left off: large carriers
B14: 556 (protein)
CDR: TTVHQKTTRVNSCPDGYGYGDGYCYDSGCSASDCYGVDALYSYGHCGCSIYTERPRYEWYVD
modifications: Anti-C5 ultralong CDR-H3
B15: hC3Nb1 Loop 2 (protein)
VHH: QVQLVETGGGLVQAGGSLRLSCAASGSIFSLNAMGWFRQAPSGGGSGCPPGYKSGVDCSPGSECKWGCYAVDGRRYGGYGADSGVSGGGSKEREFVATINRSGGRTYYADSVKGRFTISRDNGKNMVYLQMHSLKPEDTAIYYCAAGTGWSPQTDNEYNYWGQGTQVTVSS
modifications: left off: a dimerising Fc or GST

Assays:
[1] = target: T1, C5 (Homo sapiens, UniProt P01031); settings: C5 coated directly and biotinylated C5 captured on streptavidin; OD 630 nm
[2] = target: T1, C5; assay: Biacore (SPR) single-cycle kinetics on immobilised C5; format: binding; settings: C5 binding, Biacore, n = 3 independent experiments; for Mean Koff: in 1/s
Description: Binding to C5 was measured using surface plasmon resonance (SPR) single-cycle kinetics as described below.
Biacore single-cycle kinetics. Using a Biacore 8K (GE Healthcare), C5 was immobilized on a CM5 chip by amine coupling. Flow cells were activated using EDC/NHS (flow rate, 10 μL/min; contact time, 30 s). C5, at 1 μg/mL in pH 4.5 Sodium-acetate buffer, was immobilized on flow cell two only (flow rate, 10 μL/min; contact time, 420 s). Finally, ethanolamine was applied to both flow cells (flow rate, 10 μL/min; contact time, 420 s). A final immobilization level of approximately 2,000 response units was obtained.
Single-cycle kinetics were measured using titrations in HBS-EP buffer. A high flow rate of 40 μL/min was used, with a contact time of 230 s and a dissociation time of 900 s. Binding to the reference surface was subtracted, and the data were fitted to a single-site binding model using Biacore evaluation software.
We measured individual rate constants (kon and koff) and equilibrium dissociation constants (KD) for knob domain peptides binding to C5 by the Biacore single-cycle kinetics method described above.
We used SPR single cycle kinetics to measure binding to human C5 protein.

[3] = target: T1, C5; assay: Monoclonal phage screening ELISA, human C5; format: binding; settings: anti-C5 ultralong CDR-H3; binder = OD>0.2 AU
Description: (§1) For the C5 libraries, a single round of enrichment was performed with either human or rat C5 protein. […] Phage were blocked for 30 minutes. Biotinylated antigen was added to the blocked phage at a concentration of 100 nM and incubated at room temperature with mixing.
(§2) Colonies were picked into a 96-well culture plate containing selective medium 2TY supplemented with 1% Glucose and 100 μg/ml Carbenicillin and was incubated at 37° C. until wells reached mid-log phase of growth prior to addition of M13K07 helper phage. The block was incubated without shaking for 1 hour to achieve infection and phage production using continued culture in selective media supplemented with 50 μg/ml Kanamycin and 100 μg/ml Carbenicillin.
Binding to antigen was assessed by monoclonal phage ELISA, 96-well flat bottom Nunc MaxiSorp plates (Thermofisher) were coated with a 2.5 μg/ml solution of human, mouse, or rat serum albumin, human C5 or mouse C5 diluted with PBS, and left overnight at 4° C. Negative control plate and Anti-myc tag plate were also prepared.
Monoclonal phage rescue supernatants were blocked with an equal volume of a 2% milk (w/v) in PBS, for serum albumin proteins, or 2% BSA and 2% milk (w/v) in PBS solution. The coating solution was removed from coated Nunc plates and each plate was blocked with 1% BSA in PBS (for C5 libraries) or 1% milk powder (for albumin library). Both phage and Nunc plates were blocked for 1 hour at room temperature. Nunc plates were washed using a 96-well microplate washer (BioTek) with a PBS solution contain 0.1% Tween20 (Sigma Aldrich). 100 of blocked phage solution was added to each well of Nunc MaxiSorp plate and left shaking at room temperature for 1 hour. Plates were washed and dried as previously described. 100 of an Anti-M13-Horse radish peroxidase conjugated antibody (GE Healthcare) diluted (1:5,000) in a 1% BSA or milk solution was added to each well and left shaking at room temperature for 1 hour. Plates were washed again and 50 μL of TMB solution (Merck Millipore) was added to each well. Plates were left shaking for 10 minutes. Absorbance was measured at 630 nm and 490 nm. Binding signals were obtained where Absorbance at 630 nm was >3-times the signal upon irrelevant antigen.
By monoclonal phage ELISA the following ultralong CDR-H3 sequences were identified as binders (OD>0.2 AU): […]

[4] = target: C3 protein (Homo sapiens, UniProt P01024); settings: C3 coated directly and biotinylated C3 captured on streptavidin; OD 630 nm
[5] = target: human complement component C3 (Homo sapiens, UniProt P01024); assay: SPR binding / counter screen on complement component C3; settings: Biacore, n = 3 independent experiments
Text: The PGT121-knob domain fusion proteins were counter screened for binding to human complement component C3. C3 is the closest human homologue to C5, sharing a conserved fold and a sequence homology of 26.5%.
We measured binding to C3 and C5 by SPR multi-cycle kinetics and we report full binding kinetics and equilibrium dissociation constants (KD) for binding to both proteins.

[6] = target: rat C5 protein (Rattus norvegicus, UniProt P08650); assay: Monoclonal phage screening ELISA, rat C5; format: binding; settings: anti-C5 ultralong CDR-H3; binder = OD>0.2 AU
Description: as §1, §2
[…] Negative control plate and Anti-myc tag plate were also prepared.
Monoclonal phage rescue supernatants were blocked with an equal volume of a 2% milk (w/v) in PBS, for serum albumin proteins, or 2% BSA and 2% milk (w/v) in PBS solution. The coating solution was removed from coated Nunc plates and each plate was blocked with 1% BSA in PBS (for C5 libraries) or 1% milk powder (for albumin library). Both phage and Nunc plates were blocked for 1 hour at room temperature. […] Absorbance was measured at 630 nm and 490 nm. Binding signals were obtained where Absorbance at 630 nm was >3-times the signal upon irrelevant antigen. […]

human complement component C3, sequence (P01024 23-1663): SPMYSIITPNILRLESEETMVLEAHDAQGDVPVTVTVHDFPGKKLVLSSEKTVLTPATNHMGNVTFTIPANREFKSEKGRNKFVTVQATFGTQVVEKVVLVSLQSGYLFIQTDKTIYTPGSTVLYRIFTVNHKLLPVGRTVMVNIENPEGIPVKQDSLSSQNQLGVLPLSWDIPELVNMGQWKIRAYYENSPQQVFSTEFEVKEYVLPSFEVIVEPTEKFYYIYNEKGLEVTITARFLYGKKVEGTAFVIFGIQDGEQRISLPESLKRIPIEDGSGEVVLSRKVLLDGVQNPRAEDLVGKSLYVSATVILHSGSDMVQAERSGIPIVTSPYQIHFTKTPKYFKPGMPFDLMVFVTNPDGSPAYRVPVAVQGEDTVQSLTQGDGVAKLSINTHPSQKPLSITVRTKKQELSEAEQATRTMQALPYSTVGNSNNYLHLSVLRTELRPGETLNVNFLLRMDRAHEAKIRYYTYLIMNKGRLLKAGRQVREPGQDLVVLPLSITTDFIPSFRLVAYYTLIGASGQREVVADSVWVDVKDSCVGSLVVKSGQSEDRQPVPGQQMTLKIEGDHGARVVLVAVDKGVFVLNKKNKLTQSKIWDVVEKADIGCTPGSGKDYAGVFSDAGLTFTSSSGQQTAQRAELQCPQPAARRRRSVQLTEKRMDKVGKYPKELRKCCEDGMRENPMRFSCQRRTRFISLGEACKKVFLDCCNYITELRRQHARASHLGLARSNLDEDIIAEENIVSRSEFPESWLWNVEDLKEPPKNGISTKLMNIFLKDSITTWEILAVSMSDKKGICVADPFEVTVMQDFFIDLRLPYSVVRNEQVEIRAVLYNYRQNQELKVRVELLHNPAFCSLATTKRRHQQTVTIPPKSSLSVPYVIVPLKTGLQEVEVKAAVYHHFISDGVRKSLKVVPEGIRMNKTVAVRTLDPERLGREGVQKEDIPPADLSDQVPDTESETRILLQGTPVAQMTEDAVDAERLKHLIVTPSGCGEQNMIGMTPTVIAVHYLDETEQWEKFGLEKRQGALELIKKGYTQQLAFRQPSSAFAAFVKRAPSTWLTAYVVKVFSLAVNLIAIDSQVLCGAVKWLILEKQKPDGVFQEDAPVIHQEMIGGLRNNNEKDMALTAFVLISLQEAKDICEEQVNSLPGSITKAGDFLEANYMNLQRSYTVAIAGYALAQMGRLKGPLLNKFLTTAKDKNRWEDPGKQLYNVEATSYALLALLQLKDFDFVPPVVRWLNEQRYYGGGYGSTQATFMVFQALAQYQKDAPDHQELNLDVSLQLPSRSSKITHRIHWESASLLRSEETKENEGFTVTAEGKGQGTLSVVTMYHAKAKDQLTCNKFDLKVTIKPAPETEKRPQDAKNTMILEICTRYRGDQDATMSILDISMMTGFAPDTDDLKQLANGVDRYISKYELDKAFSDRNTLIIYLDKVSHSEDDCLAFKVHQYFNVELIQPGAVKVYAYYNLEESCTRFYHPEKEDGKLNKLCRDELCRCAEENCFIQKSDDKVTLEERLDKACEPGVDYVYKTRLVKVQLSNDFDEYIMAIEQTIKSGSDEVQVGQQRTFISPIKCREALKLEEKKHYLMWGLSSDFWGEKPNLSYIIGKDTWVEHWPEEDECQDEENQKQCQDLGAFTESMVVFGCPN
T1 sequence (P01031 19-1676): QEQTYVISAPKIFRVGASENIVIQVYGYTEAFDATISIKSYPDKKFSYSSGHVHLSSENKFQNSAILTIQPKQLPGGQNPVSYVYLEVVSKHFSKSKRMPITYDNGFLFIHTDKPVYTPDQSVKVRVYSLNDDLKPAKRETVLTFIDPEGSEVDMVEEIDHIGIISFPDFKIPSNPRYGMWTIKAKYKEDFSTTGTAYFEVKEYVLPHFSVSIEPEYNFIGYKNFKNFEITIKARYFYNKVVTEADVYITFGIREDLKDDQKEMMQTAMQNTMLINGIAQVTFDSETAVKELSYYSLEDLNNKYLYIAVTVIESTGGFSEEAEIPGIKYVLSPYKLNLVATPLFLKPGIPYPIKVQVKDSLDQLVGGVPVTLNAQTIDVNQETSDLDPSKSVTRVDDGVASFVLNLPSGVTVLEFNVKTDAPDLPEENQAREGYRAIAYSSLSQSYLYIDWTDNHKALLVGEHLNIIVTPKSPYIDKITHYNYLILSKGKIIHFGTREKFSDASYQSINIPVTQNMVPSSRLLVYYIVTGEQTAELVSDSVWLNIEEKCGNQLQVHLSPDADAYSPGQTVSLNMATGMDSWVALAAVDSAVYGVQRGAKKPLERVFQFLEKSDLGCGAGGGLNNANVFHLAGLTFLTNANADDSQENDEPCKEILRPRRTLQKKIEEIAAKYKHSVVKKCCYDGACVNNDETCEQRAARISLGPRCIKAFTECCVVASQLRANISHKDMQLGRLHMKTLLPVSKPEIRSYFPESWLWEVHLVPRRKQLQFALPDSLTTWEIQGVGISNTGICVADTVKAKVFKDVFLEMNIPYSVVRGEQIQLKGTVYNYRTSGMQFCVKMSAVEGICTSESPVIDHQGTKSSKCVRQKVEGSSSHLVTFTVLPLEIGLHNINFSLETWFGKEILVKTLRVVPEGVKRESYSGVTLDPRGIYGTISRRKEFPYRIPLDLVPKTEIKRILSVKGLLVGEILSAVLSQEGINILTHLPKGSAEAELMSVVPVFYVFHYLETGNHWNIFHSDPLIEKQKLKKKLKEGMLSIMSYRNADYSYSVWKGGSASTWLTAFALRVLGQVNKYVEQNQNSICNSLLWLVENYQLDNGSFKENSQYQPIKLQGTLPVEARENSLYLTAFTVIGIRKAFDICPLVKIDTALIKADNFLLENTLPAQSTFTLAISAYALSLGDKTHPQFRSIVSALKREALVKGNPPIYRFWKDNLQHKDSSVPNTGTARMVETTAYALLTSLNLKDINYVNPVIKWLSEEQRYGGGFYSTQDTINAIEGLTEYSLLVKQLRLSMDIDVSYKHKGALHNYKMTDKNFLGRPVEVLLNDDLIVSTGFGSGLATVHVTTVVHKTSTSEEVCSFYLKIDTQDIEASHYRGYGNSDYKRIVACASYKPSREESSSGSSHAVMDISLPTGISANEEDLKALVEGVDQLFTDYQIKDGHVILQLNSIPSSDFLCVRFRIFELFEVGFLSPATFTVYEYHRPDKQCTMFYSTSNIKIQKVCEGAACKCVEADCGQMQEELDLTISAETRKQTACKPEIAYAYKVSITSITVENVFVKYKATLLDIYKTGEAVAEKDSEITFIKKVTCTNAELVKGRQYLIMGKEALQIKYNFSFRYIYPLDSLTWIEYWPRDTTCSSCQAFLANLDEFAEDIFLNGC
C3 protein, sequence (P01024 23-1663): as the sequence (P01024 23-1663) above
rat C5 protein, sequence (P08650 19-674 limits assumed): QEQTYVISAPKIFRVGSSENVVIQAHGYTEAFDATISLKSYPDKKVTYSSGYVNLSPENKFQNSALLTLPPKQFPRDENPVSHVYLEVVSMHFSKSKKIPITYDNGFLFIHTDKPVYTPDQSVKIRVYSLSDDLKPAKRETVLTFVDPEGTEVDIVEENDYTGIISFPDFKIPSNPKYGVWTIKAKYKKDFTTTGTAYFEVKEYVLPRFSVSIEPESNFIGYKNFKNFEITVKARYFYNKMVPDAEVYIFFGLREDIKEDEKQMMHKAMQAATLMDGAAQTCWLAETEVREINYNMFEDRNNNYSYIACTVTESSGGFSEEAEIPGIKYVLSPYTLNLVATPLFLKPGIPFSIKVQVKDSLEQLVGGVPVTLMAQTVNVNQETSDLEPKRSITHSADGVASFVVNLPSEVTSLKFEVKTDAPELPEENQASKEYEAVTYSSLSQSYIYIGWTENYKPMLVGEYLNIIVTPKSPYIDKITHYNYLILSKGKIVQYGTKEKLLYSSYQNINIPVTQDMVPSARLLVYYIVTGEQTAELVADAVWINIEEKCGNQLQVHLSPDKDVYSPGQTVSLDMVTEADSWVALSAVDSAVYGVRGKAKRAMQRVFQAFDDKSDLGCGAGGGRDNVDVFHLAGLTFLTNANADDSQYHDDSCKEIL
rat C5 protein, sequence (P08650 679-1681 limits assumed): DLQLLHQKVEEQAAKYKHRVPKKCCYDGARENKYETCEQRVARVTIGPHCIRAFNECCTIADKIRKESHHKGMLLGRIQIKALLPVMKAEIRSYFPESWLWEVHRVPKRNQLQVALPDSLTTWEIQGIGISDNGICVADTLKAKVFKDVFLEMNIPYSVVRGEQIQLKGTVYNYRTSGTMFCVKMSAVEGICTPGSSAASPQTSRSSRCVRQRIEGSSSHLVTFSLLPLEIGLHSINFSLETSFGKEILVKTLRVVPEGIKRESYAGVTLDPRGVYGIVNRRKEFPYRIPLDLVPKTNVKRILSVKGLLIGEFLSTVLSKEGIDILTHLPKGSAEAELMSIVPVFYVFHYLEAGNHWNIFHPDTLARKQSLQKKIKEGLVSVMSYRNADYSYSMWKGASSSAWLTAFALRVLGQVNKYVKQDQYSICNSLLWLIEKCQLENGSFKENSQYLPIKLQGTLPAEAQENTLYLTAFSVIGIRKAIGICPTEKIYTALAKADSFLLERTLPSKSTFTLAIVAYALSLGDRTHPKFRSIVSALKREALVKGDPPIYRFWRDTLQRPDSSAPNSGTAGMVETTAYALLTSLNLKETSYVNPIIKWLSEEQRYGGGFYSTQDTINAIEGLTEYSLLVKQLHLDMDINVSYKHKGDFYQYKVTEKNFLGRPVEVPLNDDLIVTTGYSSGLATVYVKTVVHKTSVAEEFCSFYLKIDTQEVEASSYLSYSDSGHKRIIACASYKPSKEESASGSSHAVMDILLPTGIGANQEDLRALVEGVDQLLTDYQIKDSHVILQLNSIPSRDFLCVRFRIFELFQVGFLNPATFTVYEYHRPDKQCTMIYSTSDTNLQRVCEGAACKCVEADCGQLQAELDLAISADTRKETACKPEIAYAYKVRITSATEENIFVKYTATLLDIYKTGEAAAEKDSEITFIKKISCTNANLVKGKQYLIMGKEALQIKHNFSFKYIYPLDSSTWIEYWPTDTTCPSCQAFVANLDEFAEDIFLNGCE

Molecule | binding to human C5 (phage ELISA) [1] | Mean Kon [2] | Mean Koff [2] | Specificity [3] | other results
B1 | displayed binding to human C5 |  |  |  | 
B2 |  | 4.52E+05 | 1.19E−04 |  | 
B3 |  |  |  | Human | 
B4 |  |  |  | Human | 
B5 | displayed binding to human C5 |  |  |  | 
B6 | did not bind |  |  |  | binding to human C3 (phage ELISA) [4]: did not bind
B7 |  | 6.18E+05 | 1.18E−04 |  | 
B8 | No cross-reactivity to C5 protein was observed |  |  |  | binding to human C3 (phage ELISA) [4]: binding to human C3
B9 |  |  |  | Human | 
B10 |  | 1.76E+05 | 1.48E−04 |  | Kd [5]: 1.51 nM; Mean Kon [5]: 7.32E+05; Mean Koff ([5]; in 1/s): 2.01E−04
B11 |  | 2.37E+05 | 1.37E−04 |  | 
B12 |  |  |  | Human | 
B13 | displayed binding to human C5 |  |  |  | 
B14 |  |  |  | Human and Rat | Specificity [6]: Human and Rat
B15 |  | 2.85E+05 | 9.09E−05 |  | 
